In patent US20200230168, “NUCLEIC ACID OLIGOMERS AND USES THEREFOR” (Queensland University of Technology, published 2020):

What was measured:
mSSB1 [1] = molecular target: T1, mSSB1 (Mus musculus, UniProt Q8R2Y9 Q8R2Y9:1-212); test: EMSA; conditions: label: FAM
Description: (§1) FAM-labeled non-targeting PS compound, LSA_In3E3, PD compounds, DNA_In3E3 and RNA_In3E3, and a negative control oligomer compound, NEGC, were incubated separately with purified mouse SSB1 (mSSB1), hSSB1 and human SSB2 (hSSB2) proteins.

hSSB1 [2] = molecular target: T2, hSSB1 (Homo sapiens, UniProt Q9BQ15 Q9BQ15:1-211); test: EMSA; conditions: label: FAM
Description: (§2) FIG. 15 is a graphic representation of hSSB1 EMSAs showing increasing concentrations of hSSB1 protein vs. 5 nM of FAM-labeled LSA_In3E3 sequence in either phosphorothioate (PS) or phosphodiester (PD) chemistry, or negative control sequence (Neg_C) in phosphorothioate chemistry. Graphs represent quantification of at least triplicate experiments, expressed as the fraction of oligomer compound bound to the protein. Purified protein was incubated with 5 nM of labeled oligomer compound for 15 min at 37° C. in a buffer consisting of 10 mM Tris-HCl (pH7.5), 100 mM KCl, 0.01% IGEPAL, 1 mM EDTA and 50 ng/μL BSA.
as §1

hSSB1 [3] = molecular target: T2, hSSB1; test: SPR; LSA_In3E3 = 1
THOC4 (ALYREF) = THOC4 (ALYREF) (UniProt Q86V81 Q86V81:2-257); test: EMSA; 10 mM Tris pH 8.0, 100 mM NaCl, 1 mM EDTA, 37C
hSSB1 [4] = molecular target: T2, hSSB1; test: EMSA; 10 mM Tris, 1 mM EDTA, 37C; Table 7 gives 9 nM; conditions: label: FAM
Description: as §2, §1

hSSB2 = hSSB2 (Homo sapiens, UniProt Q96AH0 Q96AH0:1-204); test: EMSA; Tris pH 7.5, 100 mM KCl, 1 mM EDTA, 37C; single EMSA; conditions: label: FAM
Description: FIG. 16 is a graphic representation of a single EMSA showing increasing concentrations of hSSB2 protein vs. 5 nM of FAM-labeled LSA_In3E3 sequence or negative control sequence (Neg_C) in phosphorothioate chemistry. Graphs represent the fraction of oligo bound to the protein. Purified protein was incubated with 5 nM of labeled oligo for 15 min at 37° C. in a buffer consisting of 10 mM Tris-HCl (pH7.5), 100 mM KCl, 0.01% IGEPAL, 1 mM EDTA and 50 ng/μL BSA.
as §1

mSSB1 [5] = molecular target: T1, mSSB1; test: EMSA; 1 mM EDTA, 37C; conditions: label: FAM
Description: as §1

hSSB1 [6] = molecular target: T2, hSSB1; test: EMSA; 10 mM Tris, 1 mM EDTA, 37C; Table 7 gives 3 nM; conditions: label: FAM
Description: as §2, §1

T1 sequence (Q8R2Y9 whole entry, one chain of several): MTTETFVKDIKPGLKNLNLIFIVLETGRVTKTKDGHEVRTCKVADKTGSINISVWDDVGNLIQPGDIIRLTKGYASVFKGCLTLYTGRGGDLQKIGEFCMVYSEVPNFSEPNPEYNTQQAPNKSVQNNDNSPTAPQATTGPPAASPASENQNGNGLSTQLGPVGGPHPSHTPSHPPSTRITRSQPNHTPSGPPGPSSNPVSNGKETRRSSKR
T2 sequence (Q9BQ15 whole entry, one chain of several): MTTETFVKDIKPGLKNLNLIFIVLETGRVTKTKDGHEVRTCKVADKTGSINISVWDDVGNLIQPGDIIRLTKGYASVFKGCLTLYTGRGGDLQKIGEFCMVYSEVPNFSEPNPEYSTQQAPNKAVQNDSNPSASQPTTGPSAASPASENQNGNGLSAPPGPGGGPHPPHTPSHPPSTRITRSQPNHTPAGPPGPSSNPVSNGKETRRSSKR
Sequence of hSSB2 (Q96AH0 whole entry, one chain of several): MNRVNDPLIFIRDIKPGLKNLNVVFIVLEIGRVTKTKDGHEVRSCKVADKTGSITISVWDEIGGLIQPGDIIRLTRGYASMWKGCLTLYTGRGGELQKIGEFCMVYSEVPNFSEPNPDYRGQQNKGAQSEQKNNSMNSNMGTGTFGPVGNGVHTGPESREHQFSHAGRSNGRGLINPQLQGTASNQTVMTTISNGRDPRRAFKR

CCAGUGAGCCGGACUUGCCU (ssDNA, deoxyuridine in place of T, phosphodiester) [DNA_In3E3]
Kd (mSSB1 [1]): 0.0131 µM | Kd (hSSB1 [2]): 0.0135 µM

GAGAACCGACUCGGGUAGAG (ssRNA, 2'-OMe all, PS all) [cdca3_L_ATG-3]
binding signal (hSSB1 [3]): 1.09 normalized Rmax | Kd (THOC4 (ALYREF)): 0.058 µM

CUCUUGGCUGAGCCCAUCUC (ssRNA, 2'-OMe all, PS all) [cdca3_A_ATG-3]
binding signal (hSSB1 [3]): 1.3 normalized Rmax | Kd (THOC4 (ALYREF)): 0.134 µM

CUCAUUCCUACCGACACCCC (ssRNA, 2'-OMe all, PS all) [Neg_C]
Kd (mSSB1 [1]): 0.0154 µM | Kd (hSSB1 [4]): 0.01 µM | Kd (THOC4 (ALYREF)): 0.15 µM

CCAGUGAGCCGGACUUGCCU (ssRNA, phosphodiester, unmodified ribose) [RNA_In3E3]
Kd (hSSB1 [2]): 0.137 µM

CACGUACCUUAGUGCCUCAC (ssRNA, 2'-OMe all, PS all) [Open_L_1]
binding signal (hSSB1 [3]): 0.8 normalized Rmax | Kd (THOC4 (ALYREF)): 0.104 µM

CUGAAGCGUACCCUUUGGUG (ssRNA, 2'-OMe all, PS all) [ASO_E3E4]
binding signal (hSSB1 [3]): 0.75 normalized Rmax | Kd (THOC4 (ALYREF)): 0.07 µM

GUGCAUGGAAUCACGGAGUG (ssRNA, 2'-OMe all, PS all) [Open_A_1]
Kd (THOC4 (ALYREF)): 0.052 µM

CGCGUCACUCGCACUCGCCU (ssRNA, 2'-OMe all, PS all) [LSA_In3E3_CT5]
binding signal (hSSB1 [3]): 0.46 normalized Rmax | Kd (THOC4 (ALYREF)): 0.125 µM

CCAGUGAGCCGGACUUGCCU (ssRNA, 2'-OMe all, PS all) [LSA_In3E3]
binding result (hSSB2): binds | Kd (mSSB1 [5]): 0.00413 µM | Kd (hSSB1 [6]): 0.00329 µM | Kd (THOC4 (ALYREF)): 0.081 µM
